# Where a chain is given by its changes, count along the chain named.
# B1: ADI-75754 (antibody, V domains shown)
# VH: QVQLVQSGGDLVQPGGSLRLSCVASGFTFSNYEMNWVRQGPGKGLEWISYISTSGSTYYYADSVKGRFTISRDNARNSLYLQMDSLRVEDTAIYYCLTHPQPQYVRPTQVVWFDPWGQGTLVTVSS
# VL: EMTMTQSPGTLSLSPGERATLSCRASESVSSEYLAWHQQRPGQAPRLLIYGASSRPTGIPDRFSGSGSGTDFTLTISRLEPEDFAVYYCHQFASAPITFGQGTRLEIK
# B2: ADI-75859 (antibody, V domains shown)
# VH: QVQLVQSGGGVGQPGRSLRLSCAASGFTFGHYGMHWVRQAPGKGLEWVAAIIYDGSDKQYADSVKGRFTISRDNSKNTVYLQMNSLRPEDTAIYFCAKLGGLYCSGGNCFSGYFDYWGQGTLVTVSS
# VL: ETTLTQSPSSLSASVGDRVTITCRASQGISNSLAWYQQKPGKAPKLLLYAASTLESGVPSRFSGSGSGTDFTLTIASLQPEDFATYYCQQYYSSVRFTFGQGTILDLN
# B3: ADI-75738 (antibody, V domains shown)
# VH: QVQLQQWGAGLLKPSETLSLTCGVHDGAFSGYFWNWIRQSPVKGLEWIGEVTHSGNTNYNPSLKSRVTMSVDASKNEFSLNLTSVTAADTAVYYCARGDFYSTRLAFDVWGQGSMVTVSS
# VL: EIVLTQSPATLSLSPGERATLSCRASQSVSTYLAWYQQRPGQAPRLLIYDASNRATGIPARFSGSGSETDFTLTISSLEPEDFAVYYCQQRSNWLTFGGGTKVEIK
# B4: ADI-75700 (antibody, V domains shown)
# VH: QVQLQQWGAGLLKPSETLSLTCGVYDGSFSDYFWNWIRQPPGKGLEWIGELTHTGSTNYNPSLKSRVTILADTSKSQFSLNLSSVTAADTAVYYCARGDFYSTRLAFDLWGQGTTVTVSS
# VL: B3 VL with V3A, R39K, N53K, S63N, E68G, N93T, L95P, E104D
# B5: ADI-75684 (antibody, V domains shown)
# V domain 1: QVQLQESGPGLVKPSETLSLTCTVSGGSISSDHFYWGWIRQPPGKGLEWIGTTYYTARTNYNPSLKSRVTISVDTSKNQFSLKLTSVTATDTAIYYCARVEVSGGFSGYDFLTPYYFDYWGQGALVTVSS
# V domain 2: not shown
# Target: recombinant SARS-CoV-2 WT (Wuhan-1) RBD
# Test: BLI
row,Binder,Kd [nM]
1,B1,3.58
2,B2,0.36
3,B3,0.26
4,B4,0.24

# Target: recombinant SARS-CoV-2 Omicron BA.2 RBD
# Test: BLI
row,Binder,Kd [nM]
1,B5,18.4
2,B1,> 300
3,B2,2.37
4,B3,1.59
5,B4,2.51

# Target: recombinant SARS-CoV-2 Delta RBD
# Test: BLI
row,Binder,Kd [nM]
1,B5,1.89
2,B1,3.45
3,B2,0.82
4,B3,1.53
5,B4,1.22

# Target: recombinant SARS-CoV RBD (SARS-CoV, UniProt P59594 306-527)
# Test: BLI
row,Binder,Kd [nM]
1,B5,2.59
2,B1,1.41
3,B2,226
4,B3,150
5,B4,62.2

# Target: recombinant SARS-CoV-2 Omicron BA.1 RBD
# Test: BLI
row,Binder,Kd [nM]
1,B5,1.35
2,B1,37
3,B2,13.3
4,B3,2.77
5,B4,7.01

# Target: recombinant SARS-CoV-2 Beta RBD
# Test: BLI
row,Binder,Kd [nM]
1,B5,1.05
2,B1,1.61
3,B2,0.89
4,B3,0.56
5,B4,1.23

# Source: US20250223339A1 (published 2025)
